For test [1], the target named is full length human TL1A expressed on HEK293 cells (human) (UniProt O95150). Briefly: flow, HEK293/hTL1A, isotype control 1 ug/ml in place of anti-hTL1A (background; same value as r16c2, printed under column 1742P).
Test [2] has the same target. Briefly: flow, HEK293/hTL1A, isotype control 1 ug/ml in place of anti-hTL1A (background; same value as r16c2, printed under column 1805N).
Test [3] shares this target. Briefly: flow, HEK293/hTL1A, isotype control in place of anti-hTL1A (background; columns c2-c7).
Test [4] shares this target. Briefly: flow, HEK293/hTL1A, isotype control 1 ug/ml in place of anti-hTL1A (background; same value as r16c8, printed under column 1745P).
For test [5] the target is unchanged. Briefly: flow, HEK293/hTL1A, isotype control 1 ug/ml in place of anti-hTL1A (background; same value as r16c2, printed under column 1725P).
Test [6] shares this target. Briefly: flow, HEK293/hTL1A, isotype control 1 ug/ml in place of anti-hTL1A (background; same value as r16c2, printed under column 1804N).
The target is the same in test [7]. Briefly: flow, HEK293/hTL1A, isotype control 1 ug/ml in place of anti-hTL1A (background; same value as r16c2, printed under column 1817N).
Test [8] shares this target. Briefly: flow, HEK293/hTL1A, isotype control in place of anti-hTL1A (background; columns c8-c9).

Chain of full length human TL1A expressed on HEK293 cells (human) (O95150 whole entry): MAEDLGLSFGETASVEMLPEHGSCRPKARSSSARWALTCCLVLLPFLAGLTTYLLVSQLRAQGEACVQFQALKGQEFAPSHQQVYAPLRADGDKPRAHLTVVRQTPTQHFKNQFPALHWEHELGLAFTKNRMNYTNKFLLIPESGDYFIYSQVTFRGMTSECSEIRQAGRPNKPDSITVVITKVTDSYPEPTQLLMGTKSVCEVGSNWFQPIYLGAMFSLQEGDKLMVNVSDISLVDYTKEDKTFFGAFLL

Regarding “negative isotype control antibody (human IgG4)”, the MFI turned out to be 27.5 in test [1]; 27.5 in test [2]; 27.5 in test [3]; 17.9 in test [4]; 27.5 in test [5]; 27.5 in test [6]. Also, the MFI came to 27.5 in test [7] and 17.9 in test [8].

Values taken from patent publication US20140120109A1.
